Reference: patent US20240190996A1 (Regeneron, published 2024)

Key:
[1] = target: T1, human coagulation factor XI (hFXI), plasma-derived (ERL) (human, UniProt P03951 19-625); assay: cell-based or functional assay
[2] = target: T2, human activated factor XI (hFXIa), plasma-derived (ERL) (human, UniProt P03951 19-387; P03951 388-625); assay: cell-based or functional assay
[3] = target: T1, human coagulation factor XI (hFXI), …; assay: SPR (Biacore), mAb captured on anti-hFc, antigen injected, 25C
Experimental: (§1) Then, all FXI solutions were injected on Biacore 8K at 30 μL/min for 180 seconds and dissociation was monitored for 10 minutes.

[4] = target: T1, human coagulation factor XI (hFXI), …; assay: SPR (Biacore), mAb captured on anti-hFc, antigen injected, 37C
Experimental: as §1

hFXI.mmh (REGN3848) [5] = target: T3, hFXI.mmh (REGN3848) (human, UniProt P03951 19-625); assay: SPR (Biacore), mAb captured on anti-hFc, antigen injected, 25C
T3 construct: Human FXI with a C-terminal myc-myc-hexahistidine tag; also called human FXI.mmh; recombinant human FXI
Experimental: as §1

hFXI.mmh (REGN3848) [6] = target: T3, hFXI.mmh (REGN3848); assay: SPR (Biacore), mAb captured on anti-hFc, antigen injected, 37C
Experimental: as §1

mfFXI.mmh (REGN3883) [7] = target: T4, mfFXI.mmh (REGN3883) (cynomolgus monkey (Macaca fascicularis), UniProt A0A2K5VVW4 19-624); assay: SPR (Biacore), mAb captured on anti-hFc, antigen injected, 25C
T4 construct: also called monkey FXI.mmh; recombinant cynomolgus monkey FXI; not shown: mmH tag

mfFXI.mmh (REGN3883) [8] = target: T4, mfFXI.mmh (REGN3883); assay: SPR (Biacore), mAb captured on anti-hFc, antigen injected, 37C
Experimental: as §1

[9] = target: T2, human activated factor XI (hFXIa), …; assay: SPR (Biacore), mAb captured on anti-hFc, antigen injected, 25C
Experimental: as §1

[10] = target: T2, human activated factor XI (hFXIa), …; assay: SPR (Biacore), mAb captured on anti-hFc, antigen injected, 37C
Experimental: as §1

[11] = target: T1, human coagulation factor XI (hFXI), …; assay: SPR (Biacore), mAb captured on anti-hFc, antigen injected, 25C; 25 C
Experimental: as §1

[12] = target: T1, human coagulation factor XI (hFXI), …; assay: SPR (Biacore), REGN7508 captured on anti-hFcG, antigen injected, 25C, pH 7.4
Experimental: (§2) Each concentration was tested in duplicate.
(§3) Specific binding signals were obtained by a double referencing procedure and plotted as SPR sensorgrams. […] The kinetic parameters were obtained by globally fitting these specific binding signals to a 1:1 binding model with mass transport limitation. The equilibrium dissociation constant (KD) was calculated from the ratio of the dissociation rate constant to the association rate constant (KD=kd/ka).

[13] = target: T2, human activated factor XI (hFXIa), …; assay: as above
Experimental: as §2, §3

hFXI.mmh (REGN3848) [14] = target: T3, hFXI.mmh (REGN3848); assay: as above
Experimental: as §2, §3

mfFXI.mmh (REGN3883) [15] = target: T4, mfFXI.mmh (REGN3883); assay: as above
Experimental: as §2, §3

mFXI.mmH = target: T5, mFXI.mmH (mouse, UniProt Q91Y47 19-624); assay: SPR (Biacore), REGN7508 captured on anti-hFcG, mFXI.mmH injected, 25C, pH 7.4
T5 construct: also called recombinant mouse FXI; not shown: mmH tag

rbFXI.mmH = target: T6, rbFXI.mmH (rabbit, UniProt G1SSQ6 19-623); assay: SPR (Biacore), REGN7508 captured on anti-hFcG, rbFXI.mmH injected, 25C, pH 7.4
T6 construct: also called recombinant rabbit FXI; not shown: mmH tag
T6 sequence (G1SSQ6 entry or part of it): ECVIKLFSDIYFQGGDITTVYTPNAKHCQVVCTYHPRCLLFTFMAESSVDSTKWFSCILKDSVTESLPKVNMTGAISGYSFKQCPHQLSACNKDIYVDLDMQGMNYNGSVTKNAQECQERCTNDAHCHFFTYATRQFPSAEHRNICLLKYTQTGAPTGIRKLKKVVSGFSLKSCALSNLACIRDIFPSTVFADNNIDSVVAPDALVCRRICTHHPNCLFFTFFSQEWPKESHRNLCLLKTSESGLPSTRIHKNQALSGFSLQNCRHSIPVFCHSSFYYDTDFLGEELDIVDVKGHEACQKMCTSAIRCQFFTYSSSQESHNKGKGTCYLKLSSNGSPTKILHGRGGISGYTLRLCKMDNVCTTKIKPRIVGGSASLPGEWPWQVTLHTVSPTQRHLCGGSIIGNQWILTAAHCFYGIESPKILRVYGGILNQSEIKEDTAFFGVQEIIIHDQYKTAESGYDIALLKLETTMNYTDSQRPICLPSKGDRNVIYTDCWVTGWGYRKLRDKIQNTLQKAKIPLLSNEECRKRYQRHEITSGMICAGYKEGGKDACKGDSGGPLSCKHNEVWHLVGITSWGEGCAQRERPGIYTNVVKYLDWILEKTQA

T3 sequence (P03951 other isoform, or with tags, fused parts or gaps limits assumed): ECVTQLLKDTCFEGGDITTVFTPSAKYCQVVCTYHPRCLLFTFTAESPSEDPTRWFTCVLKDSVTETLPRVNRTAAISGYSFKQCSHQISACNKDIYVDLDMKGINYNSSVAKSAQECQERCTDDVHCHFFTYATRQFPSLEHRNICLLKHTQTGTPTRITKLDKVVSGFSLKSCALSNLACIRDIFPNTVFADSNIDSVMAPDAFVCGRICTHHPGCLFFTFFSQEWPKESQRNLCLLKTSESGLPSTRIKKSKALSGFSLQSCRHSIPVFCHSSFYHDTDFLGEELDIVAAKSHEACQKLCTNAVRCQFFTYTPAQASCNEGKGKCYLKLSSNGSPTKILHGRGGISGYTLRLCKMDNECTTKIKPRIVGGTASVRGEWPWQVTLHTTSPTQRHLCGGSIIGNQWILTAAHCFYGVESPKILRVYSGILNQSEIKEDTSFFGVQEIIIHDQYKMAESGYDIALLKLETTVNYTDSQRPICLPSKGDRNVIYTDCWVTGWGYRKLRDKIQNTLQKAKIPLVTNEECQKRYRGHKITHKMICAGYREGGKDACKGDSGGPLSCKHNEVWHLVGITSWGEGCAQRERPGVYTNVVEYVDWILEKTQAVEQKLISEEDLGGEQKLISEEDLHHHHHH
T4 sequence (A0A2K5VVW4 entry or part of it): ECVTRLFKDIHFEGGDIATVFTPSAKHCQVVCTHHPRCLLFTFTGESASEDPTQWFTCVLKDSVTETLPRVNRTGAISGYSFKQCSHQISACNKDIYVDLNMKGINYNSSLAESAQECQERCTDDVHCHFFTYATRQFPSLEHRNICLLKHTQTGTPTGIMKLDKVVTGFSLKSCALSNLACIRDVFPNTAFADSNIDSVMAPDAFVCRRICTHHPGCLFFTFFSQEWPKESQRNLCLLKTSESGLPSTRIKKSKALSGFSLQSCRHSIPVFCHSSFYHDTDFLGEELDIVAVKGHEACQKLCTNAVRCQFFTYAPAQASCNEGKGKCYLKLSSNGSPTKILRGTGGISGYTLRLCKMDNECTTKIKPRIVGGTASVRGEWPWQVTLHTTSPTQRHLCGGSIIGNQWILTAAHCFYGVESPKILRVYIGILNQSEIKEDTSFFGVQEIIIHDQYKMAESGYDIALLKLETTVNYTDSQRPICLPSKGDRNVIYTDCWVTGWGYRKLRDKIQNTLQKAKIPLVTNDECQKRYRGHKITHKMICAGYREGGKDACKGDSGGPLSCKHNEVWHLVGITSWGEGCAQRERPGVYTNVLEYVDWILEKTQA
T1 sequence (P03951 19-625): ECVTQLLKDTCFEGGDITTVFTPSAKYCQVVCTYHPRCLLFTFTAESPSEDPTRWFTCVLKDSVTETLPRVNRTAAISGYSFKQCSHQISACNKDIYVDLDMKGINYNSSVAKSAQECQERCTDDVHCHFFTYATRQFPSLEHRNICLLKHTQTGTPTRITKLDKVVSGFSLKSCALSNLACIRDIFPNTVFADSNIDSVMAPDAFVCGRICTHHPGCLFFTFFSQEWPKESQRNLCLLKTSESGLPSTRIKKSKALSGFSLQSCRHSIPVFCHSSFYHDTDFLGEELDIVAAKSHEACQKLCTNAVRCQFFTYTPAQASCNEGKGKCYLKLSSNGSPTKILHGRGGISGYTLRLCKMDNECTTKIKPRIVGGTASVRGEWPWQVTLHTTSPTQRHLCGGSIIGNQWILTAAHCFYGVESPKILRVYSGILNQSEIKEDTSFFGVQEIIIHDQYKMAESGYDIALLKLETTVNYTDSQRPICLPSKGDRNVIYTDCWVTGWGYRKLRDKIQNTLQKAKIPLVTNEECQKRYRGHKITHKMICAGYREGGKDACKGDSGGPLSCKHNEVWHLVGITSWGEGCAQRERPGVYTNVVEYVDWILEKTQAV
T2 sequence (P03951 19-387 limits assumed, chain 1 of 2): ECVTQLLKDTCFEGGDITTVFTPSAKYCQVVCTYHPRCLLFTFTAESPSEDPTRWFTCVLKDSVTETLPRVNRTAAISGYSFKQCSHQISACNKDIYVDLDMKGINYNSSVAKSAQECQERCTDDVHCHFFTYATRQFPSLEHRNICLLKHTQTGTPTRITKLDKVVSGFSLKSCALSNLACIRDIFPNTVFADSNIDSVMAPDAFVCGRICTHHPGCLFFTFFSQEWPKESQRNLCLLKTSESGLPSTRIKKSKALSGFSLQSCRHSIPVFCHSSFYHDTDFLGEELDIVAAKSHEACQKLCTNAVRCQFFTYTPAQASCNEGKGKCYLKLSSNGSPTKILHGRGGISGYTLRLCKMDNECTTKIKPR
T2 sequence (P03951 388-625 limits assumed, chain 2 of 2): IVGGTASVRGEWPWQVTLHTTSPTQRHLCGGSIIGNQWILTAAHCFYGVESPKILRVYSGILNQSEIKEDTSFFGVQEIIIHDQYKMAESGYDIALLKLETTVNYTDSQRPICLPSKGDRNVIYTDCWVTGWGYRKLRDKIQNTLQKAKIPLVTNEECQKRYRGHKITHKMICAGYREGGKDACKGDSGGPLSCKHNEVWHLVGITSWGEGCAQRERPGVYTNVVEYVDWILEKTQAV
T5 sequence (Q91Y47 19-624): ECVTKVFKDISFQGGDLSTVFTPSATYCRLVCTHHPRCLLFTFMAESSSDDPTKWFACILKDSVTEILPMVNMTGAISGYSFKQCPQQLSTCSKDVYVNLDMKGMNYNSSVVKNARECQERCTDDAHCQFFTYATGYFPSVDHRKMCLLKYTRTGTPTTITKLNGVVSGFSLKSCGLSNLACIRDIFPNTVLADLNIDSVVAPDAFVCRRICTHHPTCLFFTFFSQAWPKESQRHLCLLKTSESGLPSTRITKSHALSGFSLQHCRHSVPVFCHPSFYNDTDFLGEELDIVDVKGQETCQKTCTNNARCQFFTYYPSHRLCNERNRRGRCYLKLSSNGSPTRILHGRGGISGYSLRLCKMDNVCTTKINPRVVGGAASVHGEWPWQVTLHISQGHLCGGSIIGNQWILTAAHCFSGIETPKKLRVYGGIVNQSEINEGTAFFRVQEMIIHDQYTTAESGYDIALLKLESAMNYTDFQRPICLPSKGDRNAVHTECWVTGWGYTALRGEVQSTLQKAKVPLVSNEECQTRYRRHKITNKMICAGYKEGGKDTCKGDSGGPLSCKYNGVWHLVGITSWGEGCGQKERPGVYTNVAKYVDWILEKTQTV

B1: REGN9932 (antibody, human IgG4 S228P, kappa, V domains shown)
VH: QVQLVESGGGVVQPGRSLRLSCAASGFTFSNYEMHWVRQTPGKGLEWVALIWYDGSNKYSGDSVKGRFTISRDNSKSTLYLQMNSLTAEDTAVYYCTGITGTEDAFDVWGQGTMVTVSS
VL: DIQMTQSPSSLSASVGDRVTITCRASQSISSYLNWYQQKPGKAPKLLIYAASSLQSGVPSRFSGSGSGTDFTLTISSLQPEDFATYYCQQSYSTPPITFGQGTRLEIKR
notes: also called anti-FXI mAb [REGN9932]
For B1, the “IC50 [M], FXI, 0.13% plasma (chromogenic FXa generation, BIOPHEN Factor XIa kit)” value [1] was 1.9e-10 M, the “IC50 [M], FXIa, 0.13% plasma (chromogenic FXa generation, BIOPHEN Factor XIa kit)” value [2] was greater than 1e-08 M and the Kd [3] was no more than 0.119 nM. It also gave a koff [3] of no more than 1e-05 s⁻¹, a kon [3] of 83800 M⁻¹ s⁻¹ and a t½ [3] of no less than 19.2 h. The Kd [4] was 0.0365 nM, the koff [4] was no more than 1e-05 s⁻¹ and the kon [4] was 274000 M⁻¹ s⁻¹. For the same binder, the t½ [4] was no less than 19.2 h, the Kd (hFXI.mmh (REGN3848) [5]) was no more than 0.116 nM and the koff (hFXI.mmh (REGN3848) [5]) was no more than 1e-05 s⁻¹. The kon (hFXI.mmh (REGN3848) [5]) was 86200 M⁻¹ s⁻¹, the t½ (hFXI.mmh (REGN3848) [5]) was no less than 19.2 h and the Kd (hFXI.mmh (REGN3848) [6]) was 0.387 nM. It also gave a koff (hFXI.mmh (REGN3848) [6]) of 8.77e-05 s⁻¹, a kon (hFXI.mmh (REGN3848) [6]) of 226000 M⁻¹ s⁻¹ and a t½ (hFXI.mmh (REGN3848) [6]) of 2.19 h. For the same binder, the Kd (mfFXI.mmh (REGN3883) [7]) was no more than 0.0644 nM, the koff (mfFXI.mmh (REGN3883) [7]) was no more than 1e-05 s⁻¹ and the kon (mfFXI.mmh (REGN3883) [7]) was 155000 M⁻¹ s⁻¹. The t½ (mfFXI.mmh (REGN3883) [7]) was no less than 19.2 h, the Kd (mfFXI.mmh (REGN3883) [8]) was 0.268 nM and the koff (mfFXI.mmh (REGN3883) [8]) was 8.6e-05 s⁻¹. The kon (mfFXI.mmh (REGN3883) [8]) was 321000 M⁻¹ s⁻¹ and the t½ (mfFXI.mmh (REGN3883) [8]) was 2.24 h.

B2: REGN7508 (antibody, human IgG4 S228P, kappa, V domains shown)
VH: QVQLVESGGGLVKPGGSLRLSCAASGFTFSDYSMNWIRQAPGKGLEWISYISFSGNSIYYADSVKGRFTISRDNAKNSLYLQMNSLRVEDTAIYYCTSRDWGYAFDIWGQGTMVTVSS
VL: DIQMTQSPSFLSASLGDRVTITCQASQDISNYLNWYQVKPGKAPKLLIYDASNLETGVPSRFSGSGSGTDFTFTISSLQPEDIATYFCQQYDNLPYIFGQGTKLEIKR
notes: also called Subject mAb [REGN7508]; subject anti-FXI mAb
For B2, the koff [3] was no more than 1e-05 s⁻¹, the kon [3] was 2.2e+06 M⁻¹ s⁻¹ and the t½ [3] was no less than 19.2 h. The Kd [4] was no more than 0.00309 nM, the koff [4] was no more than 1e-05 s⁻¹ and the kon [4] was 3.24e+06 M⁻¹ s⁻¹. It also gave a t½ [4] of no less than 19.2 h, a Kd [9] of no more than 0.0311 nM and a koff [9] of no more than 1e-05 s⁻¹. For the same binder, the kon [9] was 321000 M⁻¹ s⁻¹, the t½ [9] was no less than 19.2 h and the Kd [10] was 0.256 nM. It also gave a koff [10] of 0.000121 s⁻¹, a kon [10] of 475000 M⁻¹ s⁻¹ and a t½ [10] of 1.58 h. It also gave a Kd (hFXI.mmh (REGN3848) [5]) of no more than 0.00534 nM, a koff (hFXI.mmh (REGN3848) [5]) of no more than 1e-05 s⁻¹ and a kon (hFXI.mmh (REGN3848) [5]) of 1.87e+06 M⁻¹ s⁻¹. It also gave a t½ (hFXI.mmh (REGN3848) [5]) of no less than 19.2 h, a Kd (hFXI.mmh (REGN3848) [6]) of 0.0326 nM and a koff (hFXI.mmh (REGN3848) [6]) of 8.86e-05 s⁻¹. The kon (hFXI.mmh (REGN3848) [6]) was 2.71e+06 M⁻¹ s⁻¹, the t½ (hFXI.mmh (REGN3848) [6]) was 2.17 h and the Kd (mfFXI.mmh (REGN3883) [7]) was no more than 0.00481 nM. It also gave a koff (mfFXI.mmh (REGN3883) [7]) of no more than 1e-05 s⁻¹, a kon (mfFXI.mmh (REGN3883) [7]) of 2.08e+06 M⁻¹ s⁻¹ and a t½ (mfFXI.mmh (REGN3883) [7]) of no less than 19.2 h. For the same binder, the Kd (mfFXI.mmh (REGN3883) [8]) was 0.0435 nM, the koff (mfFXI.mmh (REGN3883) [8]) was 0.000111 s⁻¹ and the kon (mfFXI.mmh (REGN3883) [8]) was 2.56e+06 M⁻¹ s⁻¹. For the same binder, the t½ (mfFXI.mmh (REGN3883) [8]) was 1.73 h, the Kd [11] was no more than 0.00454 nM and the Kd [12] was 0.003 nM. The koff [12] was 9.36e-06 s⁻¹, the kon [12] was 3.12e+06 M⁻¹ s⁻¹ and the t1/2 [12] was 20.6 h. The Kd [13] was 0.0102 nM, the koff [13] was 3.61e-05 s⁻¹ and the kon [13] was 3.55e+06 M⁻¹ s⁻¹. It also gave a t1/2 [13] of 5.33 h, a Kd (hFXI.mmh (REGN3848) [14]) of 0.00807 nM and a koff (hFXI.mmh (REGN3848) [14]) of 2.7e-05 s⁻¹. It also gave a kon (hFXI.mmh (REGN3848) [14]) of 3.34e+06 M⁻¹ s⁻¹, a t1/2 (hFXI.mmh (REGN3848) [14]) of 7.13 h and a Kd (mfFXI.mmh (REGN3883) [15]) of 0.00373 nM. For the same binder, the koff (mfFXI.mmh (REGN3883) [15]) was 9.62e-06 s⁻¹, the kon (mfFXI.mmh (REGN3883) [15]) was 2.58e+06 M⁻¹ s⁻¹ and the t1/2 (mfFXI.mmh (REGN3883) [15]) was 20 h. B2: no binding (tested: 50 nM) (mFXI.mmH); no binding (tested: 250 nM) (rbFXI.mmH).
